Among the data in patent publication US20050193443A1 are ABA-inducible Em-GUS reporter gene expression, transiently co-transformed rice protoplasts; synergy relative to that of ABI5 with VP1 values, retold here.

This experiment deals with maize VIVIPAROUS-1 (VP1) B3-domain transcription factor (maize) (UniProt P26307). The experiment in a line: cell-based or functional assay.
Sequence of UniProt P26307 (P26307 whole entry): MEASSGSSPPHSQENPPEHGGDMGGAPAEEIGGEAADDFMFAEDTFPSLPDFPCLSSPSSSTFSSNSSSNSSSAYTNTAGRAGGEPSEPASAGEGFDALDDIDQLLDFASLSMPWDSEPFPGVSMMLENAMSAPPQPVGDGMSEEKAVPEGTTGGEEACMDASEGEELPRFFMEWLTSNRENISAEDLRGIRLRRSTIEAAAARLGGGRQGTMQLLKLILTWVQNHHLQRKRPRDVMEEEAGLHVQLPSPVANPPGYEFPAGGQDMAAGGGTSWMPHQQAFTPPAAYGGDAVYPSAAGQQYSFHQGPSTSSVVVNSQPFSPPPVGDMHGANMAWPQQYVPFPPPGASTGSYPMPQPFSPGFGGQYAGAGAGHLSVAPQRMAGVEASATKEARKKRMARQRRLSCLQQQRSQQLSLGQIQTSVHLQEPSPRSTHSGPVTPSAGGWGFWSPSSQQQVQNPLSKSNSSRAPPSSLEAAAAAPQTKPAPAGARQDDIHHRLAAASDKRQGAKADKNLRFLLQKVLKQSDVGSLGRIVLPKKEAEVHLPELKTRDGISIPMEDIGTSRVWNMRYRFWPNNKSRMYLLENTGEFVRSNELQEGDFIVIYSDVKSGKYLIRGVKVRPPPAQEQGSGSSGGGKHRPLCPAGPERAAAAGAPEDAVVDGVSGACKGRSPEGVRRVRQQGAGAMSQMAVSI

Turning to “ABF3 (ABA-Response Element-Binding Factor 3) (from UniProt Q9M7Q3 1-454)”, the ABA-inducible Em-GUS reporter gene expression, transiently co-transformed rice protoplasts; synergy relative to that of ABI5 with VP1 was found to be 2 fold.
